Results as given in patent CN117377689A (XENCOR INC, dated 2024).
Positions count from the first letter of the chain named.

B1: XENP35843 (GPC3-A H1.1_L1.16, 1+1 Fab-scFv-Fc bsAb with CD3 High-Int #1 scFv) (bispecific antibody)
chain 1: QVQLVQSGAEVKKPGASVKVSCKASGYTFTDYEMHWVRQAPGQGLEWMGALEPKTGDTAYSQKFQGRVTMTADKSISTAYMELSRLRSDDTAVYYCTRFYSYTYWGQGTLVTVSSASTKGPSVFPLAPSSKSTSGGTAALGCLVKDYFPEPVTVSWNSGALTSGVHTFPAVLQSSGLYSLSSVVTVPSSSLGTQTYICNVNHKPSDTKVDKKVEPKSCDKTHTCPPCPAPPVAGPSVFLFPPKPKDTLMISRTPEVTCVVVDVKHEDPEVKFNWYVDGVEVHNAKTKPREEEYNSTYRVVSVLTVLHQDWLNGKEYKCKVSNKALPAPIEKTISKAKGQPREPQVYTLPPSREEMTKNQVSLTCDVSGFYPSDIAVEWESDGQPENNYKTTPPVLDSDGSFFLYSKLTVDKSRWEQGDVFSCSVMHEALHNHYTQKSLSLSPGK
chain 2: not shown
chain 3: DVVMTQSPLSLPVTLGQPASISCRSSQSLVHSSGNTYLHWYQQRPGQSPRLLIYKVSNRFSGVPDRFSGSGSGTDFTLKISRVEAEDVGVYFCSQSTHVPPTFGSGTKLEIKRTVAAPSVFIFPPSDEQLKSGTASVVCLLNNFYPREAKVQWKVDNALQSGNSQESVTEQDSKDSTYSLSSTLTLSKADYEKHKVYACEVTHQGLSSPVTKSFNRGEC
B2: XENP36140 (GPC3-A H1.1_L1.31, 1+1 Fab-scFv-Fc bsAb with CD3 High-Int #1 scFv) (bispecific antibody)
chain 1: B1 chain 1
chain 2: not shown
chain 3: B1 chain 3 with S33N, K55Y, S96N
B3: XENP36941 (GPC3-A H1.1_L1.29, 1+1 Fab-scFv-Fc bsAb with CD3 High-Int #1 scFv) (bispecific antibody)
chain 1: B1 chain 1
chain 2: not shown
chain 3: B1 chain 3 with S33N, K55Q, S96N

molecular target: T1, His-tagged human GPC3 antigen (human, UniProt P51654 25-559, limits assumed); assay: Octet BLI; His-tagged GPC3 captured on HIS1K sensor, bsAb (1+1 Fab-scFv-Fc) as analyte
T1 construct: His-tagged antigen captured on HIS1K Octet sensors; also called 人GPC3; human glypican-3
T1 sequence (P51654 25-559 limits assumed): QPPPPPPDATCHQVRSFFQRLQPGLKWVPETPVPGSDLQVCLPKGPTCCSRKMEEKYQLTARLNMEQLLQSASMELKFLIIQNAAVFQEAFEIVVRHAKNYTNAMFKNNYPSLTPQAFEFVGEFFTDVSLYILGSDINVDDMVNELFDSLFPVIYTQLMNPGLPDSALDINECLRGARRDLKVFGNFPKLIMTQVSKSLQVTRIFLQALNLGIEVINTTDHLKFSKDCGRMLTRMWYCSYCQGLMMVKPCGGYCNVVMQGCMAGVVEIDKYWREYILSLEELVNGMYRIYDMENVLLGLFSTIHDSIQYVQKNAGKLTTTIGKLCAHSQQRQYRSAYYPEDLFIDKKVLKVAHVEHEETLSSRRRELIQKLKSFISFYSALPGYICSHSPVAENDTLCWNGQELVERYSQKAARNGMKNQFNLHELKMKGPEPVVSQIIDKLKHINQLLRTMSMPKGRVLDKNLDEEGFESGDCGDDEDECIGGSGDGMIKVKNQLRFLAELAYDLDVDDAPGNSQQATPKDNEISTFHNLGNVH

Row | Kd [nM] | Binder
1 | 100 | B1
2 | 400 | B2
3 | 70 | B3
